# According to the supplement of paper PMC10567573:
# B1: ZMYND11 (parent)
# chain: YCSIKCQQEHWHAEHKRTCRRKR
# Variants of: B1
# Assay: protein stability index of a GFP-peptide fusion (GPS, HEK-293T) (PSI 1-6); higher = more stable
# Conditions: c terminus: native
# 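Further: lentivirally expressed fusions sorted by FACS into six bins by GFP to DsRed ratio, PSI derived from sequencing read proportions per bin multiplied by bin number.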
row,Variant,protein stability index
1,YCSIKCQQEHWHAFHKRTCRRKR [E14F],1.76
2,YCSIKCQQEHWHAGHKRTCRRKR [E14G],3.11
3,YCSIKCQQEHWHALHKRTCRRKR [E14L],1.87
4,YCSIKCQQEHWHASHKRTCRRKR [E14S],2.48
5,YCSIKCQQEHWHAWHKRTCRRKR [E14W],1.71
6,YCSIKCQQEHWHAKHKRTCRRKR [E14K],2.92
7,YCSIKCQQEHWHAMHKRTCRRKR [E14M],1.77
8,YCSIKCQQEHWHARHKRTCRRKR [E14R],2.35
9,YCSIKCQQEHWHANHKRTCRRKR [E14N],2.17
10,YCSIKCQQEHWHAQHKRTCRRKR [E14Q],2.26
11,YCSIKCQQEHWHAIHKRTCRRKR [E14I],1.95
12,YCSIKCQQEHWHATHKRTCRRKR [E14T],2.36
13,YCSIKCQQEHWHAYHKRTCRRKR [E14Y],2.22
14,YCSIKCQQEHWHAHHKRTCRRKR [E14H],2.53
15,YCSIKCQQEHWHAVHKRTCRRKR [E14V],2.13
16,YCSIKCQQEHWHADHKRTCRRKR [E14D],2.26
17,YCSIKCQQEHWHAPHKRTCRRKR [E14P],1.84
18,YCSIKCQQNHWHAEHKRTCRRKR [E9N],1.94
19,YCSIKCQQFHWHAEHKRTCRRKR [E9F],2.11
20,YCSIKCQQPHWHAEHKRTCRRKR [E9P],2.11
21,YCSIKCQQGHWHAEHKRTCRRKR [E9G],2.89
22,YCSIKCQQDHWHAEHKRTCRRKR [E9D],2.31
23,YCSIKCQQQHWHAEHKRTCRRKR [E9Q],1.52
24,YCSIKCQQAHWHAEHKRTCRRKR [E9A],2.65
25,YCSIKCQQTHWHAEHKRTCRRKR [E9T],1.97

row,Variant,protein stability index
1,YCSIKCQQWHWHAEHKRTCRRKR [E9W],2.37
2,YCSIKCQQLHWHAEHKRTCRRKR [E9L],2.07
3,YCSIKCQQRHWHAEHKRTCRRKR [E9R],2.6
4,YCSIKCQQMHWHAEHKRTCRRKR [E9M],1.53
5,YCSIKCQQCHWHAEHKRTCRRKR [E9C],3.31
6,YCSIKCQQHHWHAEHKRTCRRKR [E9H],2.78
7,YCSIKCQQKHWHAEHKRTCRRKR [E9K],2.17
8,YCSIKCQQVHWHAEHKRTCRRKR [E9V],2.93
9,YCSIKCQQSHWHAEHKRTCRRKR [E9S],1.68
10,YCSIKCQQYHWHAEHKRTCRRKR [E9Y],1.93
11,YCSIKCQQIHWHAEHKRTCRRKR [E9I],2.11
12,YCSIKCTQEHWHAEHKRTCRRKR [Q7T],2.63
13,YCSIKCPQEHWHAEHKRTCRRKR [Q7P],2.2
14,YCSIKCSQEHWHAEHKRTCRRKR [Q7S],3.18
15,YCSIKCMQEHWHAEHKRTCRRKR [Q7M],2.15
16,YCSIKCNQEHWHAEHKRTCRRKR [Q7N],2.38
17,YCSIKCYQEHWHAEHKRTCRRKR [Q7Y],2.35
18,YCSIKCVQEHWHAEHKRTCRRKR [Q7V],1.37
19,YCSIKCWQEHWHAEHKRTCRRKR [Q7W],1.53
20,YCSIKCQQEHWHAECKRTCRRKR [H15C],2.38
21,YCSIKCQQEHWHAEGKRTCRRKR [H15G],2.44
22,YCSIKCQQEHWHAEWKRTCRRKR [H15W],1.69
23,YCSIKCQQEHWHAEAKRTCRRKR [H15A],1.9
24,YCSIKCQQEHWHAERKRTCRRKR [H15R],2.18
25,YCSIKCQQEHWHAETKRTCRRKR [H15T],2.41

row,Variant,protein stability index
1,YCSIKCQQEHWHAEEKRTCRRKR [H15E],2.79
2,YCSIKCQQEHWHAEPKRTCRRKR [H15P],2.71
3,YCSIKCQQEHWHAEMKRTCRRKR [H15M],1.6
4,YCSIKCQQEHWHAESKRTCRRKR [H15S],2.44
5,YCSIKCQQEHWHAEIKRTCRRKR [H15I],1.95
6,YCSIKCQQEHWHAEFKRTCRRKR [H15F],1.44
7,YCSIKCQQEHWHAENKRTCRRKR [H15N],2.4
8,YCSIKCQQEHWHAEQKRTCRRKR [H15Q],2.06
9,YCSIKCQQEHWHAEKKRTCRRKR [H15K],2.01
10,YCSIKCQQEHWHAEYKRTCRRKR [H15Y],2.01
11,YCSIKCQQEHWHAEVKRTCRRKR [H15V],1.24
12,YCSIKCQQEHWHAELKRTCRRKR [H15L],3.01
13,YCSIKCQQEHWHAEHKCTCRRKR [R17C],3.29
14,YCSIKCQQEHWHAEHKHTCRRKR [R17H],2.44
15,YCSIKCQQEHWHAEHKMTCRRKR [R17M],2.32
16,YCSIKCQQEHWHAEHKITCRRKR [R17I],2.58
17,YCSIKCQQEHWHAEHKSTCRRKR [R17S],2.77
18,YCSIKCQQEHWHAEHKFTCRRKR [R17F],1.8
19,YCSIKCQQEHWHAEHKWTCRRKR [R17W],1.56
20,YCSIKCQQEHWHAEHKLTCRRKR [R17L],2.25
21,YCSIKCQQEHWHAEHKVTCRRKR [R17V],2.55
22,YCSIKCQQEHWHAEHKETCRRKR [R17E],2.65
23,YCSIKCQQEHWHAEHKYTCRRKR [R17Y],1.82
24,YCSIKCQQEHWHAEHKQTCRRKR [R17Q],2.39
25,YCSIKCQQEHWHAEHKDTCRRKR [R17D],2.63

row,Variant,protein stability index
1,YCSIKCQQEHWHAEHKPTCRRKR [R17P],2.89
2,YCSIKCQQEHWHAEHKTTCRRKR [R17T],2.25
3,YCSIKCQQEHWHAEHKNTCRRKR [R17N],2.28
4,YCSIKCQQEHWHAEHKKTCRRKR [R17K],2.27
5,YCSIKCQQEHWHAEHKATCRRKR [R17A],2.61
6,YCSIKCQQEHWPAEHKRTCRRKR [H12P],2.64
7,YCSIKCQQEHWDAEHKRTCRRKR [H12D],2.82
8,YCSIKCQQEHWEAEHKRTCRRKR [H12E],2.67
9,YCSIKCQQEHWTAEHKRTCRRKR [H12T],2.33
10,YCSIKCQQEHWVAEHKRTCRRKR [H12V],1.54
11,YCSIKCQQEHWQAEHKRTCRRKR [H12Q],2.36
12,YCSIKCQQEHWNAEHKRTCRRKR [H12N],2.9
13,YCSIKCQQEHWGAEHKRTCRRKR [H12G],2.73
14,YCSIKCQQEHWKAEHKRTCRRKR [H12K],2.42
15,YCSIKCQQEHWAAEHKRTCRRKR [H12A],2.35
16,YCSIKCQQEHWYAEHKRTCRRKR [H12Y],3.37
17,YCSIKCQQEHWMAEHKRTCRRKR [H12M],1.31
18,YCSIKCQQEHWRAEHKRTCRRKR [H12R],2.53
19,YCSIKCQQEHWLAEHKRTCRRKR [H12L],2.53
20,YCSIKCQQEHWIAEHKRTCRRKR [H12I],1.59
21,YCSIKCQQEHWSAEHKRTCRRKR [H12S],2.22
22,YCSIKCQQEHWCAEHKRTCRRKR [H12C],2.09
